The assay deals with bovine brain αβ-tubulin (taxol-stabilised microtubules, dolastatin-induced rings or DARPin-capped free dimer … (bovine, UniProt Q6B856 1-445)). The assay can be described thus: AMPPNP.
bovine brain αβ-tubulin (taxol-stabilised microtubules, dolastatin-induced rings or DARPin-capped free dimer …, sequence (chain, as listed by the source, chain 1 of 2): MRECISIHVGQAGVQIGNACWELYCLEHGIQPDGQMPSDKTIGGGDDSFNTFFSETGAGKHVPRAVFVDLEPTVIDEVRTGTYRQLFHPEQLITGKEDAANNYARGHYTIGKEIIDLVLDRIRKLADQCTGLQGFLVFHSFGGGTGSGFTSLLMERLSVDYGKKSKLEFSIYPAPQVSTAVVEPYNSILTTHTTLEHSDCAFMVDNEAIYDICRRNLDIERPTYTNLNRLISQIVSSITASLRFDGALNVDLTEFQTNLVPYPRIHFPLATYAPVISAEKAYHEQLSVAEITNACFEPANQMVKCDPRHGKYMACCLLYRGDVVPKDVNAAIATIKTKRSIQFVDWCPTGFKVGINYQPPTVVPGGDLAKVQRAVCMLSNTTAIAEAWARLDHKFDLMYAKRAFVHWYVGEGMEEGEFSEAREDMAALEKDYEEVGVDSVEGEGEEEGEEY
bovine brain αβ-tubulin (taxol-stabilised microtubules, dolastatin-induced rings or DARPin-capped free dimer …, sequence (Q6B856 whole entry, chain 2 of 2): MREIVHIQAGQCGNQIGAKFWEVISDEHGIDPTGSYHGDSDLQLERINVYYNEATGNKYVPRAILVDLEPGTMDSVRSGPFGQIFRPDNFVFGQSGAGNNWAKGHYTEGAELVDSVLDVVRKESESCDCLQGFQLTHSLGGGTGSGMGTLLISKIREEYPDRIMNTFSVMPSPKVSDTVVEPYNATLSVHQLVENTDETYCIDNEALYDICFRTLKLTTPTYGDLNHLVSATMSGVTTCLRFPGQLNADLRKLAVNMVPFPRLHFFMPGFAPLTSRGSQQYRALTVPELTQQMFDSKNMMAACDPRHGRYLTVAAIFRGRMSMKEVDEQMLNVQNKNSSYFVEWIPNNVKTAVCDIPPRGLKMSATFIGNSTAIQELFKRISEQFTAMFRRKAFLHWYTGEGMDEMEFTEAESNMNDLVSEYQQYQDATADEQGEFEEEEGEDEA

B1: HsKHC-MDN (human kinesin-1 heavy chain KIF5B construct equivalent to CaKip3-MDN) (domain or fragment)
chain: MADLAECNIKVMCRFRPLNESEVNRGDKYIAKFQGEDTVVIASKPYAFDRVFQSSTSQEQVYNDCAKKIVKDVLEGYNGTIFAYGQTSSGKTHTMEGKLHDPEGMGIIPRIVQDIFNYIYSMDENLEFHIKVSYFEIYLDKIRDLLDVSKTNLSVHEDKNRVPYVKGCTERFVCSPDEVMDTIDEGKSNRHVAVTNMNEHSSRSHSIFLINVKQENTQTEQKLSGKLYLVDLAGSEKVSKTGAEGAVLDEAKNINKSLSALGNVISALAEGSTYVPYRDSKMTRILQDSLGGNCRTTIVICCSPSSYNESETKSTLLFGQRAKTIKNTVCVN
For orientation: Kd means the free concentration of one partner at which half of the binding sites on the other are occupied at equilibrium, for simple one-to-one binding. Read a high Kd as weaker binding. B1 showed a dissociation constant (Kd) of 350 nM.

B2: CaKip3-MDN (Candida albicans Kip3 motor domain and slightly truncated neck-linker, residues 1-436) (domain or fragment)
chain: MSYPNSLGSPATVTSTSVPTAKQSSISVAVRVRPFTEAESNRLVKIDNDDVFLGDGCLTSDNNNNNNNSNSNGNGNGNGSSAANSSGASTSRRAIFNTLGGLRKIINVVDDRMLIFDPPETNPLTKMQRNAFPNSFKGSRIREHRFVFDRLFDEDCTQDQVYRNTTQPLLDSVLDGYNATVFAYGATGCGKTHTISGTPEDPGVIFLTMKELYNRIEELKDTKIIDISLSYLEIYNETIRDLLNPMTQCKNLVIREDANNKISVSNLSRHRPNSVEEVMQLILEGNKNRTCSPTEANATSSRSHAVLQINVIQKDRTGDITEEHTFATLSIIDLAGSERAAATKNRGARLNEGANINKSLLALGNCINALCDPRRRNHVPYRDSKLTRLLKFSLGGNCKTVMIVCVSPSSQHYDETLNTLKYADRAKEIKTKLIRN
Regarding B2, binding was characterised by a dissociation constant (Kd) of 43 nM.

(Values after paper PMC9300613 (2022).)
